{"source": "patent US20200123231A1", "about": "(RESEARCH FOUNDATION OF THE CITY UNIVERSITY OF NEW YORK, published 2020)", "target": "the molecule itself", "assay": "TEM, negative stain, TES buffer pH 7, 24 h at 37 C; non-specific self-association (no fibrils)", "protocol": "FIG. 5A and FIG. 5B are TEM images of the non-specific aggregates of Col108r. The fibril formation was initiated by transferring Col108r in 5 mM Acetic Acid (pH 4.5) to TES buffer (pH 7) and incubated for 24 hr at 37° C. The grids were stained with 1% sodium phosphotungstate; magnification factor 10,000; the scale bar is 200 nm. The two images were taken for two different preparations under identical treatments.", "data": [{"protein": "peptide Col108r (Col-domain, randomized Col-domain and reversed Col-domain units) (Forms a collagen triple helix (trimer) with Cys-knots and foldon) GPCCGPPGPPGPPGPPGERGPPGPQGARGLPGAPGQMGPRGLPGERGRPGAPGPAGARGEPGAPGSKGDTGAKGEPGPVGVQGPPGPAGEEGKRGARGEPGPTGPAGPKGSPGEAGRPGEAGLPGPPGPPGPPGPPGMQGLPGPRGAPGRAGPEGRAGRPGPAGLPGEQGRAGRPGPPGAEGAEGKPGAPGSPGPRGLPGPAGDTGPEGQVGARGPKGEPGTPGRAGEPGEPGVPGKAGPKGESGPPGPPGPPGPPGREGPPGQPGRAGPLGPAGMQGRPGPLGREGPRGPAGAPGRAGPEGPAGKSGTDGKAGPEGVPGQVGPPGAPGEEGRKGRAGPEGTPGAPGKPGPSGAEGPRGAEGPLGPPGPPGPPGPPGPCCGYIPEAPRDGQAYVRKDGEWVLLSTFL", "values": [{"measurement": "binding result", "result": "binds"}]}]}
